Assay results as given in article PMC5584245.
Where two headings read alike, the source gives them in different places.

Columns and labels:
[1] = target: hG7-BM1 (hVH-B1, hVL-B1) (human); assay: SPR; Biacore X100; CD24-GST flowed over immobilized antibody; 1:1 binding model; procedure as in ref. 45
[2] = target: hG7-BM1 (hVH-B1, hVL-B1) (human); assay: as above; remark: listed apart in the source

Chain of hG7-BM1 (hVH-B1, hVL-B1) (human) (heavy, as listed by the source, chain 1 of 2): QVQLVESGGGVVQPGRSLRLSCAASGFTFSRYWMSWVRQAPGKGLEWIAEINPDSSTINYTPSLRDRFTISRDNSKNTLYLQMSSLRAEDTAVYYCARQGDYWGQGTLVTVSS
Chain of hG7-BM1 (hVH-B1, hVL-B1) (human) (light, as listed by the source, chain 2 of 2): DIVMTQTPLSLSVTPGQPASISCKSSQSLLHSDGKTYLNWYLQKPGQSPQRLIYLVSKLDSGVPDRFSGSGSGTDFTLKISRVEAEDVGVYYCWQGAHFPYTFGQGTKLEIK

SETTTGTSSNSSQSTSNSGLAPNPTNATTKAAG (natural protein) [CD24-GST]
Kd [1]: 1.64 nM | koff [1]: 0.000764 s⁻¹ | kon [1]: 465000 M⁻¹ s⁻¹ | Kd [2]: 0.164 nM
